Test results from the supplement of paper PMC9112550, “Optimization of the antimicrobial peptide Bac7 by deep mutational scanning” (BMC Biology, 2022).

System: Escherichia coli TOP10
Test: shrunken log2 fold change of peptide-encoding DNA abundance (4.5 h post-induction vs induction); higher = less antimicrobial activity (less host growth inhibition)
Conditions: time post-induction: 4.5 h; library: site-saturation at positions 5, 18, 19, 20
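Also: peptides expressed intracellularly from a pBAD plasmid library in pooled LB shake-flask culture, induced with 0.3% L-arabinose, DNA abundance read by NGS, three biological replicates, DESeq2 with apeglm shrinkage.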

Row | Sequence | shrunken log2 fold change
1 | RRIRKRPPRLPRPRPRPHFTPRP | -0.0881
2 | RRIRRRPPRLPRPRPRPISGPRP | 0.0239
3 | RRIRARPPRLPRPRPRPKLPPRP | 0.184
4 | RRIRLRPPRLPRPRPRPEREPRP | 0.0872
5 | RRIRARPPRLPRPRPRPVKSPRP | 0.19
6 | RRIRRRPPRLPRPRPRPQGTPRP | 0.294
7 | RRIRHRPPRLPRPRPRPFNQPRP | -0.0213
8 | RRIRQRPPRLPRPRPRPNPFPRP | -0.26
9 | RRIRMRPPRLPRPRPRPQVWPRP | 0.399
10 | RRIRLRPPRLPRPRPRPSQSPRP | -0.511
11 | RRIRERPPRLPRPRPRPFQNPRP | 0.02
12 | RRIRYRPPRLPRPRPRPFLFPRP | -0.704
13 | RRIRVRPPRLPRPRPRPNTRPRP | 0.02
14 | RRIRFRPPRLPRPRPRPTVGPRP | -0.142
15 | RRIRCRPPRLPRPRPRPVRPPRP | 0.504
16 | RRIRMRPPRLPRPRPRPVVNPRP | 0.0747
17 | RRIRCRPPRLPRPRPRPCVRPRP | -0.163
18 | RRIRKRPPRLPRPRPRPQFYPRP | -0.555
19 | RRIRYRPPRLPRPRPRPMTMPRP | -0.615
20 | RRIRMRPPRLPRPRPRPHKFPRP | 0.0123
21 | RRIRTRPPRLPRPRPRPKIMPRP | -0.519
22 | RRIRTRPPRLPRPRPRPKWQPRP | 0.0171
23 | RRIRGRPPRLPRPRPRPLESPRP | 1.12
24 | RRIRDRPPRLPRPRPRPIKPPRP | -0.00115
25 | RRIRVRPPRLPRPRPRPRLNPRP | -0.00875

Row | Sequence | shrunken log2 fold change
26 | RRIRRRPPRLPRPRPRPACYPRP | 0.488
27 | RRIRMRPPRLPRPRPRPGAAPRP | 2.24
28 | RRIRERPPRLPRPRPRPSCIPRP | -0.455
29 | RRIRERPPRLPRPRPRPCLSPRP | 0.0657
30 | RRIRWRPPRLPRPRPRPFKVPRP | 0.00438
31 | RRIRGRPPRLPRPRPRPQRPPRP | 0.406
32 | RRIRIRPPRLPRPRPRPRNKPRP | -0.0432
33 | RRIRNRPPRLPRPRPRPGTWPRP | 0.218
34 | RRIRTRPPRLPRPRPRPKTHPRP | 0.29
35 | RRIRDRPPRLPRPRPRPMNMPRP | -0.308
36 | RRIRWRPPRLPRPRPRPFGWPRP | 0.118
37 | RRIRCRPPRLPRPRPRPKCCPRP | 0.0554
38 | RRIRPRPPRLPRPRPRPEYRPRP | 0.0278
39 | RRIRARPPRLPRPRPRPPRGPRP | 0.833
40 | RRIRCRPPRLPRPRPRPAPDPRP | 0.576
41 | RRIRFRPPRLPRPRPRPMCSPRP | -0.687
42 | RRIRHRPPRLPRPRPRPVKKPRP | 0.0327
43 | RRIRHRPPRLPRPRPRPERLPRP | 0.0977
44 | RRIRFRPPRLPRPRPRPMEYPRP | 0.0429
45 | RRIRARPPRLPRPRPRPQIMPRP | 0.0849
46 | RRIRYRPPRLPRPRPRPFCGPRP | -0.133
47 | RRIRLRPPRLPRPRPRPFKRPRP | -0.09
48 | RRIRMRPPRLPRPRPRPRMFPRP | 0.154
49 | RRIRWRPPRLPRPRPRPSLRPRP | 0.0372
50 | RRIRSRPPRLPRPRPRPQQIPRP | 0.153

Row | Sequence | shrunken log2 fold change
51 | RRIRCRPPRLPRPRPRPRRSPRP | 0.762
52 | RRIRIRPPRLPRPRPRPSEWPRP | 0.151
53 | RRIRHRPPRLPRPRPRPYSTPRP | 0.122
54 | RRIRMRPPRLPRPRPRPQILPRP | -0.0502
55 | RRIRVRPPRLPRPRPRPHEDPRP | 0.0277
56 | RRIRTRPPRLPRPRPRPMQGPRP | 0.321
57 | RRIRQRPPRLPRPRPRPIQYPRP | -0.151
58 | RRIRGRPPRLPRPRPRPPWAPRP | 0.769
59 | RRIRERPPRLPRPRPRPCPMPRP | -0.511
60 | RRIRGRPPRLPRPRPRPTWWPRP | 0.906
61 | RRIRDRPPRLPRPRPRPLQAPRP | 0.365
62 | RRIRPRPPRLPRPRPRPKSFPRP | -0.0474
63 | RRIRSRPPRLPRPRPRPPNCPRP | 0.231
64 | RRIRMRPPRLPRPRPRPPTDPRP | 1.21
65 | RRIRFRPPRLPRPRPRPTCEPRP | 0.0933
66 | RRIRGRPPRLPRPRPRPSLCPRP | 1.73
67 | RRIRARPPRLPRPRPRPLYYPRP | -0.316
68 | RRIRPRPPRLPRPRPRPHKHPRP | -0.268
69 | RRIRKRPPRLPRPRPRPMSLPRP | 0.474
70 | RRIRSRPPRLPRPRPRPVFTPRP | 0.00672
71 | RRIRMRPPRLPRPRPRPTNYPRP | -0.212
72 | RRIRMRPPRLPRPRPRPAKDPRP | 0.042
73 | RRIRDRPPRLPRPRPRPCDGPRP | -0.0192
74 | RRIRARPPRLPRPRPRPHVHPRP | -0.192
75 | RRIRIRPPRLPRPRPRPPDQPRP | -0.0864

Row | Sequence | shrunken log2 fold change
76 | RRIRNRPPRLPRPRPRPIVVPRP | 0.0207
77 | RRIRTRPPRLPRPRPRPHKMPRP | -0.0381
78 | RRIRQRPPRLPRPRPRPCKDPRP | -0.294
79 | RRIRLRPPRLPRPRPRPFSNPRP | -1.04
80 | RRIRGRPPRLPRPRPRPWQEPRP | -0.0457
81 | RRIRARPPRLPRPRPRPSKGPRP | -0.133
82 | RRIRSRPPRLPRPRPRPSDPPRP | -0.397
83 | RRIRIRPPRLPRPRPRPDTEPRP | -0.853
84 | RRIRARPPRLPRPRPRPNASPRP | 0.711
85 | RRIRIRPPRLPRPRPRPERVPRP | 0.089
86 | RRIRRRPPRLPRPRPRPSDMPRP | -0.463
87 | RRIRLRPPRLPRPRPRPVDDPRP | -0.219
88 | RRIRARPPRLPRPRPRPTPKPRP | 0.956
89 | RRIRERPPRLPRPRPRPIYGPRP | 0.0231
90 | RRIRIRPPRLPRPRPRPHTSPRP | -1.18
91 | RRIRPRPPRLPRPRPRPIKCPRP | -0.358
92 | RRIRIRPPRLPRPRPRPEYWPRP | -0.0686
93 | RRIRHRPPRLPRPRPRPNHKPRP | -0.973
94 | RRIRARPPRLPRPRPRPIALPRP | 0.0719
95 | RRIRWRPPRLPRPRPRPPRRPRP | 0.642
96 | RRIRWRPPRLPRPRPRPYCTPRP | -0.322
97 | RRIRQRPPRLPRPRPRPFCMPRP | -0.0373
98 | RRIRWRPPRLPRPRPRPKCMPRP | 0.531
99 | RRIRARPPRLPRPRPRPLIPPRP | 0.449
100 | RRIRCRPPRLPRPRPRPAANPRP | 0.0789

Row | Sequence | shrunken log2 fold change
101 | RRIRIRPPRLPRPRPRPIGVPRP | -0.0176
102 | RRIRLRPPRLPRPRPRPEFDPRP | 0.31
103 | RRIRRRPPRLPRPRPRPHGGPRP | 0.0449
104 | RRIRKRPPRLPRPRPRPKDIPRP | -0.261
105 | RRIRFRPPRLPRPRPRPPCPPRP | 0.46
106 | RRIRPRPPRLPRPRPRPHVEPRP | 0.107
107 | RRIRCRPPRLPRPRPRPKIMPRP | -0.622
108 | RRIRHRPPRLPRPRPRPSYAPRP | -0.21
109 | RRIRWRPPRLPRPRPRPGKAPRP | 0.0616
110 | RRIRTRPPRLPRPRPRPMTKPRP | -0.0084
111 | RRIRARPPRLPRPRPRPCDGPRP | 0.146
112 | RRIRHRPPRLPRPRPRPMTGPRP | -0.218
113 | RRIRDRPPRLPRPRPRPIYAPRP | -0.288
114 | RRIRIRPPRLPRPRPRPNYLPRP | -0.171
115 | RRIRPRPPRLPRPRPRPCPTPRP | 0.0557
116 | RRIRHRPPRLPRPRPRPTHTPRP | -0.00887
117 | RRIRWRPPRLPRPRPRPWWTPRP | -0.0199
118 | RRIRVRPPRLPRPRPRPFVSPRP | -0.679
119 | RRIRGRPPRLPRPRPRPCIRPRP | 0.174
120 | RRIRNRPPRLPRPRPRPWPVPRP | -0.153
121 | RRIRTRPPRLPRPRPRPHHCPRP | -0.12
122 | RRIRLRPPRLPRPRPRPRDHPRP | 0.0215
123 | RRIRPRPPRLPRPRPRPDMNPRP | -0.268
124 | RRIRRRPPRLPRPRPRPQMTPRP | 0.238
125 | RRIRDRPPRLPRPRPRPYYHPRP | -0.972
